B1: DYRK-family kinase pom1 (Schizosaccharomyces pombe (strain ATCC 38366 / 972)), Q09690 (parent)
chain: MGYLQSQKAVSLGDENTDALFKLHTSNRKSANMFGIKSELLNPSELSAVGSYSNDICPNRQSSSSTAADTSPSTNASNTNISFPEQEHKDELFMNVEPKGVGSSMDNHAITIHHSTGNGLLRSSFDHDYRQKNSPRNSIHRLSNISIGNNPIDFESSQQNNPSSLNTSSHHRTSSISNSKSFGTSLSYYNRSSKPSDWNQQNNGGHLSGVISITQDVSSVPLQSSVFSSGNHAYHASMAPKRSGSWRHTNFHSTSHPRAASIGNKSGIPPVPTIPPNIGHSTDHQHPKANISGSLTKSSSESKNLSTIQSPLKTSNSFFKELSPHSQITLSNVKNNHSHVGSQTKSHSFATPSVFDNNKPVSSDNHNNTTTSSQVHPDSRNPDPKAAPKAVSQKTNVDGHRNHEAKHGNTVQNESKSQKSSNKEGRSSRGGFFSRLSFSRSSSRMKKGSKAKHEDAPDVPAIPHAYIADSSTKSSYRNGKKTPTRTKSRMQQFINWFKPSKERSSNGNSDSASPPPVPRLSITRSQVSREPEKPEEIPSVPPLPSNFKDKGHVPQQRSVSYTPKRSSDTSESLQPSLSFASSNVLSEPFDRKVADLAMKAINSKRINKLLDDAKVMQSLLDRACIITPVRNTEVQLINTAPLTEYEQDEINNYDNIYFTGLRNVDKRRSADENTSSNFGFDDERGDYKVVLGDHIAYRYEVVDFLGKGSFGQVLRCIDYETGKLVALKIIRNKKRFHMQALVETKILQKIREWDPLDEYCMVQYTDHFYFRDHLCVATELLGKNLYELIKSNGFKGLPIVVIKSITRQLIQCLTLLNEKHVIHCDLKPENILLCHPFKSQVKVIDFGSSCFEGECVYTYIQSRFYRSPEVILGMGYGTPIDVWSLGCIIAEMYTGFPLFPGENEQEQLACIMEIFGPPDHSLIDKCSRKKVFFDSSGKPRPFVSSKGVSRRPFSKSLHQVLQCKDVSFLSFISDCLKWDPDERMTPQQAAQHDFLTGKQDVRRPNTAPARQKFARPPNIETAPIPRPLPNLPMEYNDHTLPSPKEPSNQASNLVRSSDKFPNLLTNLDYSIISDNGFLRKPVEKSRP
partner: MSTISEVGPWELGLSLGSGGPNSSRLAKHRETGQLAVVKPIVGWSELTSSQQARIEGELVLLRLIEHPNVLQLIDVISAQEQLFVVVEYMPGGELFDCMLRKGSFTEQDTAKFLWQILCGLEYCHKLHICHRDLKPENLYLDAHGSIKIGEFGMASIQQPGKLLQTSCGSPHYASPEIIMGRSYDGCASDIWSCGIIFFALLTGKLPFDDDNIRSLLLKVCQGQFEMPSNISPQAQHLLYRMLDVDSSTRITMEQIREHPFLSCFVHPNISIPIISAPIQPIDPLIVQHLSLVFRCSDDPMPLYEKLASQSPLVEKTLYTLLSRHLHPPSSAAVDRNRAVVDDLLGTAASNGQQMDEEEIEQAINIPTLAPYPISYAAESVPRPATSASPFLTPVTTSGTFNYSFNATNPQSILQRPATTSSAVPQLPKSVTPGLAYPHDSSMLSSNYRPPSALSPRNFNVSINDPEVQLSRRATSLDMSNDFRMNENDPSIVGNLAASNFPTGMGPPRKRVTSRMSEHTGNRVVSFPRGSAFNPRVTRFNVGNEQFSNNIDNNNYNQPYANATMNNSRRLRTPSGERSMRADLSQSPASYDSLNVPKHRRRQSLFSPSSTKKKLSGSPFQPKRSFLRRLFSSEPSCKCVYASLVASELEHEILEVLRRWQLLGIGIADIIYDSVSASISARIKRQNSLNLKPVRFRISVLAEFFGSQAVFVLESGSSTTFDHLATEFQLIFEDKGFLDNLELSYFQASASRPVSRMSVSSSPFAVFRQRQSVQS

Variants of: B1
Conditions: with cdr2_schpo cdr2, P87050

Q: For K728R, which “effect of a mutation on the interaction” value is on record?
A: disrupting interaction

Source: IntAct's records for PubMed 19474792
